{"source": "paper PMC11751504", "key": {"[1]": {"biological_target": "SidF C-trim (residues 1-443) (Aspergillus fumigatus) (UniProt Q4WF55)", "assay": "SEC"}, "[2]": {"biological_target": "SidF C-trim (residues 1-443) (Aspergillus fumigatus) (UniProt Q4WF55)", "assay": "SAXS"}}, "data": [{"substance": "SidF C-trim (residues 1-443) (from UniProt Q4WF55 1-443) (domain or fragment)", "values": [{"measurement": "stoichiometry N", "setting": "[1]", "result": 4}, {"measurement": "stoichiometry N", "setting": "[2]", "result": 2}]}]}
